Reference: patent US20210317230A1 (HANGZHOU SUMGEN BIOTECH, published 2021)

T1: CD38 on Raji cells (CD38 positive cells) (UniProt P28907 1-300, limits assumed)
T1 sequence (looked up): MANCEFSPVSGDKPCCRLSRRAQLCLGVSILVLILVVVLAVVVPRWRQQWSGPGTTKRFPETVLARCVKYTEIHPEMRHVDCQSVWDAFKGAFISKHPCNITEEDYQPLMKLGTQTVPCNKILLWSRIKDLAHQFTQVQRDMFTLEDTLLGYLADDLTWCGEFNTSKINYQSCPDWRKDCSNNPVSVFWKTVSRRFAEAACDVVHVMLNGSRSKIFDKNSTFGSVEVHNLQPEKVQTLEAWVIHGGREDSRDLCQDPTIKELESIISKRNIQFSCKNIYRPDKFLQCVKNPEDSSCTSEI

T2: CD38-His (UniProt P28907 43-300)
T2 construct: also called target antigen CD38; not shown: His tag
T2 sequence (looked up): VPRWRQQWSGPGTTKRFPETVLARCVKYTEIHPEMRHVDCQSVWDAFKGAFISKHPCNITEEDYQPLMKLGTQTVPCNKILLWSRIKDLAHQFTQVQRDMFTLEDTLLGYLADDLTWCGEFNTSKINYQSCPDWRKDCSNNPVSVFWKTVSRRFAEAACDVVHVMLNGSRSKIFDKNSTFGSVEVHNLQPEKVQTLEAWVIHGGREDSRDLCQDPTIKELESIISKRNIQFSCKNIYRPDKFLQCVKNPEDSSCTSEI


Columns and labels:
[1] = target: T1, CD38 on Raji cells (CD38 positive cells); assay: cell-based or functional assay
[2] = target: T2, CD38-His; assay: ELISA, CD38-His coated at 1 µg/ml, anti-human IgG HRP detection
Procedure: (1) With SG003 as the control, the binding activity between the fusion protein and CD38 was evaluated by ELISA.
Target antigen CD38-His (1 μg/ml) was coated on ELISA bars, overnight at 4° C.; after washing with PBST, 10% of fetal calf serum was added and blocked at 37° C. for 1 hour; different concentrations of SG003 antibody, SG3847L1 or SG3847L2 fusion protein were added and reacted at 37° C. for 1 hour; after washing with PBST, horseradish peroxidase-labeled goat anti-human IgG secondary antibodies (Goat Anti human IgG HRP, Thermo Fisher Scientific) were added and reacted at 37° C. for 30 minutes, and washed with PBST for 5 times; each well was added with 100 μl TMB (eBioscience), placed in dark at room temperature (20±5° C.) for 1-2 min; then each well was added with 100 μl 2N H₂SO₄ stop solution to terminate the reaction of the substrate, OD values were read at 450 nm on the microplate reader, and the capacity of the fusion protein to bind the target antigen CD38 was analyzed.

[3] = target: T3, CD47-His (UniProt Q08722 19-141, limits assumed); assay: ELISA, CD47-His coated at 1 µg/ml, anti-human IgG HRP detection
T3 construct: also called target antigen CD47; not shown: His tag
T3 sequence (Q08722 19-141 limits assumed): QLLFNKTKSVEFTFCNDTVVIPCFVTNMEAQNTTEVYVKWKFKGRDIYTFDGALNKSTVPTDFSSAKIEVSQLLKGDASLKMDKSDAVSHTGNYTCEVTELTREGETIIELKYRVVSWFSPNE
Procedure: Target antigen CD47-His (1 μg/ml) was coated on ELISA bars, overnight at 4° C.; after washing with PBST, 10% of fetal calf serum was added and blocked at 37° C. for 1 hour; different concentrations of SS002M91, SG3847L1 or SG3847L2 was added and reacted at 37° C. for 1 hour; after washing with PBST, horseradish peroxidase-labeled goat anti-human IgG secondary antibodies (Goat Anti human IgG HRP, Thermo Fisher Scientific) were added and reacted at 37° C. for 30 minutes, and washed with PBST for 5 times; each well was added with […] (eBioscience), placed in dark at room temperature (20±5° C.) for 1-2 min; then each well was added with 100 μl 2N H₂SO₄ stop solution to terminate the reaction of the substrate, OD values were read at 450 nm on the microplate reader, and the capacity of the fusion protein to bind the target antigen CD47 was analyzed.

[4] = target: T2, CD38-His; assay: bridging ELISA: CD38-His coated, fusion protein titrated, detected with Biotin-Fc-CD47 and streptavidin-HRP (simultaneous binding of CD38 and CD47)
Procedure: (1) Referring to the principle of FIG. 5, with the anti-CD38 humanized antibody SG003 as the control, the biological activities of the fusion proteins SG3847L1 and SG3847L2 to simultaneously bind two antigens CD38 and CD47 were analyzed by ELISA.
Target antigen CD38-His (1 μg/ml) was coated on ELISA bars, overnight at 4° C.; after washing with PBST, 10% of fetal calf serum was added and blocked at 37° C. for 1 hour; different concentrations of SG003 antibody, SG3847L1 or SG3847L2 fusion protein were added and reacted at 37° C. for 1 hour; after washing with PBST, biotin-labeled CD47 (Biotin-Fc-CD47) was added and reacted at 37° C. for 30 minutes, and washed with PBST for 5 times; horseradish peroxidase-labeled avidin (Streptavidin-HRP, Jiaxuan Bio.) was added and reacted at 37° C. for 30 minutes, and washed with PBST for 5 times; each well was added with 100 μl TMB (eBioscience), placed in dark at room temperature (20±5° C.) for 1-2 min; then each well was added with 100 μl 2N H₂SO₄ stop solution to terminate the reaction of the substrate, OD values were read at 450 nm on the microplate reader, and the capacities of the fusion proteins to simultaneously bind the target antigens CD38 and CD 47 were analyzed.

[5] = target: T4, biotin-labeled CD47 (Biotin-Fc-CD47) (UniProt Q08722 19-141, limits assumed, biotin-labeled); assay: competition ELISA: SIRPα-His coated at 1 µg/ml, Biotin-Fc-CD47 at 2 µg/ml; competitor SIRPα-His
T4 construct: not shown: Fc part
T4 sequence (Q08722 19-141 limits assumed): as above
Procedure: SIRPα-His was coated on the assay plate at 1 μg/ml overnight at 4° C.; after washing with PBST, 10% of fetal calf serum was added and blocked at 37° C. for 1 hour; SS002M91, SG3847L1 or SG3847L2 was gradiently diluted respectively with 10% of fetal bovine blood, and Biotin-Fc-CD47 was added into the samples until a final concentration of 2 μg/ml, pre-incubated at 37° C. for 30 min, as the primary antibody; after the assay plate was washed with PBST, the primary antibody was added and incubated at 37° C. for 1 hour; after washing with PBST for 5 times, horseradish peroxidase-labeled avidin (Streptavidin-HRP, Jiaxuan Bio.) was added and incubated at 37° C. for 30 minutes; after washing with PBST for 5 times, each well was added with 100 μl TMB (eBioscience), placed in dark at room temperature (20±5° C.) for 1-5 min; then each well was added with 100 μl 2N H₂SO₄ stop solution to terminate the reaction of the substrate, OD values were read at 450 nm on the microplate reader, and the blocking effects of SS002M91, SG3847L1, SG3847L2 on CD47/SIRPα were analyzed.

Row | Binder | ADCC EC50 (specific kill rate, LDH release; Raji target cells, NK92MI-CD16a effector cells) [1] [nM] | EC50 [2] [nM] | EC50 [3] [nM] | EC50 [4] [nM] | IC50 [5] [nM]
1 | anti-CD38 humanized antibody SG003 (antibody, human IgG1, kappa, V domains shown, also called SG003 antibody) VH: QVQLLESGGGLVQPGGSLKLSCVASGFDFSLYWMNWVRQAPGKGLEWIGKINPDSSTINYTPSLKDKFFISRDNAKNTLYLQMTKVRSEDTALYYCARLWIATGGFDYWGQGTTLTVSS VL: EIVMTQSPASLSASLGQRATISCRASSSVSSSAFSYVHWYQQKSGQPPKLLIYLASNLESGVPARFSGSGSGTDFTLTIHPVESEDVATYYCHHSRELPFTFGSGTKLEIKR | 0.067 | 0.133 |  |  | 
2 | fusion protein SG3847L1 (bispecific antibody, human IgG1, kappa, First polypeptide chain = SG003 light chain) heavy: not shown light: EIVMTQSPASLSASLGQRATISCRASSSVSSSAFSYVHWYQQKSGQPPKLLIYLASNLESGVPARFSGSGSGTDFTLTIHPVESEDVATYYCHHSRELPFTFGSGTKLEIKRTVAAPSVFIFPPSDEQLKSGTASVVCLLNNFYPREAKVQWKVDNALQSGNSQESVTEQDSKDSTYSLSSTLTLSKADYEKHKVYACEVTHQGLSSPVTKSFNRGEC | 0.014 | 0.175 | 0.114 | 0.02 | 46.8
3 | fusion protein SG3847L2 (bispecific antibody, human IgG1, kappa, First polypeptide chain = SG003 light chain) heavy: not shown light: EIVMTQSPASLSASLGQRATISCRASSSVSSSAFSYVHWYQQKSGQPPKLLIYLASNLESGVPARFSGSGSGTDFTLTIHPVESEDVATYYCHHSRELPFTFGSGTKLEIKRTVAAPSVFIFPPSDEQLKSGTASVVCLLNNFYPREAKVQWKVDNALQSGNSQESVTEQDSKDSTYSLSSTLTLSKADYEKHKVYACEVTHQGLSSPVTKSFNRGEC | 0.013 | 0.149 | 0.091 | 0.024 | 78.8
